Measurements: patent US20210214432A1 (Y BIOLOGICS, published 2021)

What was measured:
[1] = biological target: T1, DLK1-hFc fusion protein (extracellular region of human DLK1 fused with human Fc) (human, UniProt P80370 24-303); test: ELISA, coated DLK1 antigen, IgG titrated 100 nM to 0.046 nM, GraphPad Prism fit
T1 construct: The ELISA text says 'DLK1 protein'/'antigen DLK1' coated at 100 ng/well; also called hDLK1; DLK1 antigen
T1 sequence: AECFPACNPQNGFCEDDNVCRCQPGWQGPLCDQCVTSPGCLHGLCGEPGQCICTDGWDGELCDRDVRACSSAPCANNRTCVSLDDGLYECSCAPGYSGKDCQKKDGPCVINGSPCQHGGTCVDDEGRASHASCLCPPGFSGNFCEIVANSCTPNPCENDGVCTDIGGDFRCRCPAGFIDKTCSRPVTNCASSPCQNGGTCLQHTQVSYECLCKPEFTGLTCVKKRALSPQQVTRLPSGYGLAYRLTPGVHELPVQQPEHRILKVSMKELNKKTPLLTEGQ

[2] = biological target: T2, human DLK1 present on the cell surface (DLK1-overexpressing MIA PaCa-2 cells); SK-N-F1 cells endogenously … (human, UniProt P80370 24-383); test: cell-based or functional assay
T2 sequence (looked up): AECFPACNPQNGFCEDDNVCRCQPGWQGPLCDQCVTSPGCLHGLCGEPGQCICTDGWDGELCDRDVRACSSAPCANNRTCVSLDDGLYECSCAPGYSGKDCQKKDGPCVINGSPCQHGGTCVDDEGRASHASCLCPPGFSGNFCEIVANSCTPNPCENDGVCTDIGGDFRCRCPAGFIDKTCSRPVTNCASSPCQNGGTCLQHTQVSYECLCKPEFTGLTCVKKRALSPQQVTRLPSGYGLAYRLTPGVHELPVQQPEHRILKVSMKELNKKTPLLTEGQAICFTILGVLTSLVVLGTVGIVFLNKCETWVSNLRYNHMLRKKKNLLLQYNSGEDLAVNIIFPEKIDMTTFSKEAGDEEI

[3] = biological target: T2, human DLK1 present on the cell surface …; test: FACS, DLK1-overexpressing MIA PaCa-2 cells, antibody titrated 1/3 from 10 µg/ml

Row | Binder | Kd [1] [pM] | EC50 of cytotoxicity of 18A5-Fab ZAP in DLK1-overexpressing MIA PaCa-2 cells [2] [pM] | EC50 [3] [µg/mL] | EC50 of cytotoxicity of 18A5_AM_1A12-Fab ZAP in DLK1-overexpressing MIA PaCa-2 cells [2] [pM] | EC50 of cytotoxicity of 18A5_LS_1A10-Fab ZAP in DLK1-overexpressing MIA PaCa-2 cells [2] [pM]
1 | human anti-DLK1 monoclonal antibody 27F7 (antibody, V domains shown, Converted from scFv to IgG) VH: QMQLVESGGGLVKPGGSLTLSCDATGFNFGSYYMNWVRQAPGKGLEWLAHISSTGRTIYYADSVKGRFTISRDNAKSSLDLQMNSLRAEDTAVYYCARDQGYPFGMDVWGHGTTVTVSS VL: QLVLTQPSSVSGAPGQRVTISCTGSSSNIGAGYDVDWYQQLPGTAPKLLIYGNTNRPSGVPDRFSGSKSGTSASLAITGLQAEDDSDYYCQSYDSSLSAWVFGGGTKLTVL | 220 |  |  |  | 
2 | human anti-DLK1 monoclonal antibody 18A5 (antibody, V domains shown, Converted from scFv to IgG; also called DLK1-18A5) VH: QVQLVQSGGAVVQPGHSLRLSCEASGFKFKDYGMHWVRQAPGKGLEWLAVISHDGRNKNYADSVKGRLTISRDNSKNTLSFQMNSLRAEDTAVYYCVRDWSYAFDIWGQGTLVTVSS VL: DIQMTQSPSFLSASVGDRVNITCRASQDISRRLAWYQQKPGKAPKLLIYGAASLQSAVASRFSGSGSGTEFTLTISSLQPEDFANYYCQQIYTTPLTFGGGTKVEIK | 520 | 0.002 | 0.131 |  | 
3 | human anti-DLK1 monoclonal antibody variant 18A5_AM_1A12 (antibody, V domains shown) VH: QVQLVQSGGGVVQPGGSLRLSCAASGFKFKDYGMHWVRQAPGKGLEWLAVISHDGRNKNYADSVKGRLTISRDNSKNTLSFQMNSLRAEDTAVYYCVRDWSYAFDIWGQGTLVTVSS VL: DIQMTQSPSFLSASVGDRVTITCRASHDISSSLAWYQQKSGKAPKLLIYSASNLKSGVPSRFSGSGSGTDFSLTISSLQPEDFATYYCQQSYTTVLTFGGGTKLEIK | 13 |  | 0.0903 | 0.0026 | 
4 | human anti-DLK1 monoclonal antibody variant 18A5_LS_1A10 (antibody, V domains shown) VH: QVQLVQSGGAVVQPGHSLRLSCEASGFKFKDYGMHWVRQAPGKGLEWLAVISHDGRNKNYADSVKGRLTISRDNSKNTLSFQMNSLRAEDTAVYYCVRDWSYAFDIWGQGTLVTVSS VL: DIQMTQSPSSLSASLGDRVTITCRASQGISSALAWYQQKPGKAPKLLIYAASSLQSGVPSRFSGSGSGTDFTLTINSLQPEDFATYYCQQSYTTPLTFGGGTKVEIK | 47 |  | 0.12 |  | 0.0011
5 | human anti-DLK1 monoclonal antibody 17B11 (antibody, V domains shown, Converted from scFv to IgG (pNATVH/pNATVL, HEK293E)) VH: QVQLVESGGTLVQPGGSLRLSCAASGFTFSSHAMSWVRQTPGKGLEWVSSITKSGSGTYSADSVKGRFTISRDNSKNTLYLQMNSLRAEDTAVYYCTREGLGYYYGMDVWGQGTTVTVSS VL: QLVLTQPPSVSGAPGQRVIISCTGSSSNIGAGYDVHWYQQLPGTAPRLLIYGSTNRPSGVPDRFSGSKSGTSASLAITGLQAEDEADYYCQSYDNSLSAHYVFGTGTKVTVL | 7190 |  |  |  | 
6 | human anti-DLK1 monoclonal antibody 20D3 (antibody, V domains shown, Converted from scFv to IgG) VH: QMQLVQSGGGLVQPGRSLRLSCAASGFTFDDYAMHWVRQAPGKGLEWVSGISWNSGSIGYADSVKGRFTISRDNAKNSLYLQMNSLRAEDTAVYYCTKGPGLATGKVYFNSWGQGTQVTVSS VL: DIQMTQSPSSVSASVGDRVTITCRASQRISSWLAWYQQKPGRAPKLLIHSASTLHNGVPSRFSGSASGTDFTLTISSLQPEDFAIYYCQQGHSFPYTFGQGTKLDIK | 54000 |  |  |  | 
7 | human anti-DLK1 monoclonal antibody 35E2 (antibody, V domains shown, Converted from scFv to IgG) VH: QVQLVESGGGVVQPGRSLRLSCAASGFTFSSYAMHWVRQAPGKGLEWVAVIYSGGSTYYADSVKGRFTISRDNSKNTLYLQMNSLRAEDTAVYYCAREGSYDVMTYTRIGGYFDYWGQGALVTVSS VL: DIQMTQSPSSVSASVGDRVTITCRASQGISDWVAWYQQKPGKAPKLLIYAASSLQSGVPSRFSGSGSGTEFSLTISNLQPEDFATYYCQQANSFPLTFGPGTKVEIK | 330 |  |  |  | 
